Patent US20250326867A1, “De novo designed chlorophyll special pair proteins” (University of Washington, priority 2024, published 2025)
Substitutions are numbered along the chain they refer to.

B1: D2P (designed binder)
chain: SGSGSEEEEKRLIEKMSKFIWWFAQQLGDERILRAVEKLQQEIKENSPTPETFMTLINLLLSLLIWWAAQKLGDEKILEAVERLLQQIEENSPTPETHMTLAALAQSLAIWQQAQKLGDEDILEAVERLLEEIQRNSPTPSTLIKLTWLLLLLNNWQELQKQGDEEQLRSSEKAMKELKE
notes: Designed homodimer subunit, after TEV cleavage
B2: tj79C2-H65D (designed binder)
chain: SGSGSREDELQARLLILLIELAAERADIAAERTGDPRVRELARELKRLAQEAAEEVKRDPSSSDVWLALHLIVIAILIAVEALEAAERTGDPEVRELARELVRLAVEAAEEVQRNPSSSDVLKALMLILIAILLLLEALEAAERTGDPEVRELARELVRLAVEAAEEVQRNPSSKEVQMALLLILIAILEAILSLLRAERSGDPEKREKARERVREAVERAEEVQRDPSGW
notes: as for B1
B3: tj79C2-H65E (designed binder)
chain: B2 chain with Q11W, W66L, K123I
notes: as for B1
B4: tj79C2-H69A (designed binder)
chain: SGSGSREDELQARLQLLAAELAAEEADIAAERTGDPRVRELARELKRLAQEAAEEVKRDPSSSDVNAALVLITHAIMLAVEALKAAERTGDPEVRELARELVRLAVEAAEEVQRNPSSSDVNKALFLIMMAIITAVTALEAAERTGDPEVRELARELVRLAVEAAEEVQRNPSSKEVDMALLLILIAILEAVLSLLRAERSGDPEKREKARERVREAVERAEEVQRDPSGW
notes: as for B1
B5: SP1 (designed binder)
chain: GGDSRELIARYQILLAELAAIRADIAAERTGDPYVRKLARELKRLAQEAAEEVKRDPSSSDVNMALLLILLMIELAVRALEAAERTGDPEVRELAAELVWLAVEAAEEVQRNPSSSDVWLALHLIMLAIWAAVAALEAAERTGDPEVRELARELVRLAVEAAEEVQRNPSSKEVYMALLLILIAILEAVLSLLRAERSGDPEKREKARERVREAVERAEEVQR
notes: De novo designed subunit of a C2 homodimer
B6: D2R (designed binder)
chain: SGSGSEEEELKRLQTLIKYLQLLIQNAKWQNPDDELLRQVEELIEEMKKRLEENPNSQEDQALLKLLITIIALIIMILWLKSENPDDELLRQVEELIKEMIERLKENPNSQEDQALLQLLHAILGLILLIQQLKKQNPDDELLQQVEELIEEMIKRLKENPNSEKDQILLSFLALSLLSIFLIQTQKKQNPDDERLKQWEKQIKESIESSKE
notes: as for B1
B7: D2M (designed binder)
chain: SGSGSEEEQIRLAQLAIQIIQYQVEKNGDEQLLRLIQEITEQLQKEGDERLIAILSTMFGIIWILEQVEKNGDEELLRLIQEITEKLARQGDERLIQIGAAMLAIIIILEQVKKNGDEQLLRLIREITRKLAEEGDQRLIWILHAMMAIIMSSEELEKNGDEELLQKLRELLEKIAKE
notes: as for B1
B8: D2T (designed binder)
chain: SGSGSEEEELERLKEQLKIWQKLIKLILEQDPNDEQIRRILEQAEEIIQKLQEDPNNEELQRLIQLLFQLVLGIFIIKQILELDPNDEQIRRILEQAKEIIQKLQEDPNNEELYRLQGLLGMLVGIILLIKLMLEQDPNDELIREILEQAKEIIQKLQEDPNNQELLSLIHLLLALVLWIWFMKFQLEQDPNDEEIRRQLEQLEERIRRTLE
notes: as for B1
B9: JH (designed binder)
chain: SGSSEELAREAREAAIRLAQASTKLMEAMIRGDLKELAEALIELARAVQELARVAKEYGNDELAKLAAFLAAHIAMLAIWVLILAIREGDDEVRELAKTAIKLASTAAKIVLDALPTAEEVRIITLLAKLAEEAADKKNEDSALAVLIAAMAVLIALAALEAAQRAGIEEAEKAARLLLKLAGEAARKKNPEEAKAVYNAALLVSIALLLLQKAKRAGSEETRRLAEEMLRQALERARKKN
notes: as for B1
B10: JF (designed binder)
chain: SGSGSSDELQARFLILSAKLQAEMAQIAAERTGDPRVRELARELKRLAQEAAEEVKRDPSSSEVNSNLALISMAIALAVLALLLARKAGDEEARDIAREAVEVAVRAAELILEGRDDQRAWTLWLIAHALLMAVYAARLGNSEVAELAVKVLRLAKELEKLLPSEEALFVVSMIGLAALQAAMAAAGGQEDYARDALRRLEEAIREAEENRSKESLEKVEEEGIEAMEQALRAIAGG
notes: as for B1
B11: D2Q (designed binder)
chain: SGSGSEEEEKRLIEKMSKFIWWFAQQLGDERILRAVEKLQQEIKENSPTPETYMTLGNLLLSLLIWWAAQQLGDEKILEAVERLLQQIEENSPTPETHLTLAILMSALAIWQQAQKLGDEDILEAVERLLEEIQRNSPTPSTMTKLLWLALLLNNWEELQKQGDEEQLRSSEKAMKELKE
notes: as for B1
B12: D2N (designed binder)
chain: SGSGSEEEEIRLAQLTIQIIQYQVEKNGDEQLLRLIQEITEQLQKEGDERLIRILNAMFTIIWILEAVEKNGDEELLRLIQEITEKLARQGDERLIKILSAMAGIIWILEIVKKNGDEQLLRLIREITRKLAEEGDERLIQILANMHSIIISSEELEKNGDEELLQKLRELLEKIAKELEHHHHHH
notes: as for B1
B13: D2S (designed binder)
chain: SGSGSEEEELERLKEQLKIWQKLIKLILEQDPNDEQIRRILEQAEEIIQKLQEDPNNEELQRLIQLLFNLVAIIFSIKQILELDPNDEQIRRILEQAKEIIQKLQEDPNNEELFLLAHMLFALVAIILLIKLMLEQDPNDELIREILEQAKEIIQKLQEDPNNAELAMLIALLLSLVLWIWFMKFQLEQDPNDEEIRRQLEQLEERIRRTLE
notes: as for B1
B14: tj79C2-H65C (designed binder)
chain: SGSGSREDELIARYLILLAELAAERADIAAERTGDPRVRELARELKRLAQEAAEEVKRDPSSSDVFMALHLIVLAIQIAVKALEAAERTGDPEVRELARELVRLAVEAAEEVQRNPSSSDVFLALLLIVTAIMLAVEALEAAERTGDPEVRELARELVRLAVEAAEEVQRNPSSKEVLMALLLILIAILEAVLSLLRAERSGDPEKREKARERVREAVERAEEVQRDPSGW
notes: as for B1
B15: D2K (designed binder)
chain: SGSGSREKELKQLISNLQILLLILLSQDPNNELVRKLQEKIKEAEEQGDPRRLKLIWWILALINILQALEQEDPNNELVKRLKELIKRALEEGDPRLLQLILLILHLIWLLQALEKEDPNNELVKRLKKLIEEALKEGDPRKLWQILALLLWIAQIQKLKKQDPNNELIKRAEETLEQSLKT
notes: as for B1
B16: D2L (designed binder)
chain: SGSGSREKELKQLISNLQILLLILLSEDPNNELVRKLQEKIKEAEEQGDPRRLKLIWWILNLIQMLQQLEQEDPNNELVKRLKELIKRALEEGDPRLLLLIHIILALIWLLQALEKEDPNNELVKRLKKLIEEALKEGDPRKLIQIALLLTWIATIQRLKKQDPNNELIKRAEETLEQSLKT
notes: as for B1
B17: tj79C2-H65A (designed binder)
chain: SGSGSREDELLARYLILLAELAAEEADIAAERTGDPRVRELARELKRLAQEAAEEVKRDPSSSDVNHALHLIVLAILIAVEALEAAERTGDPEVRELARELVRLAVEAAEEVQRNPSSSDVLKALILILLAIIQAVKALEAAERTGDPEVRELARELVRLAVEAAEEVQRNPSSKEVTMALLLILIAILEAVLSLLRAERSGDPEKREKARERVREAVERAEEVQRDPSGW
notes: as for B1
B18: tj79C2-H65B (designed binder)
chain: B17 chain with L11F, E25R, H67L, I78A, I126M, L129V, I133L, K137Q, T178Y
notes: as for B1
B19: JG (designed binder)
chain: SGSGSSDELEARLLIISANLQAEMAQIAAERTGDPRVRELARELKRLAQEAAEEVKRDPSSSEVNQNLTLISMAIALAVLALLLARKAGDEEARDIAREAVEVAVRAAELILEGRDEQRAWTLFLIAHALLLAVLAARLGNSEVAELAVKVLRLAKELEKLLPSEIALFVVSMIGMAALQAAMAASGGQEDYARDALRRLEEAIREAEENRSKESLEKVMEEAIRAYEQALRALAGG
notes: as for B1
B20: tj79C2-H62A (designed binder)
chain: SGSGSRYDELNARLLILLAELAAERADIAAERTGDPRVRELARELKRLAQEAAEEVKRDPSSWSVLHALWLIVVAIEAAVRALEAAERTGDPEVRELARELVRLAVEAAEEVQRNPSSWDVFMALLLIVFAIEAAVRALEAAERTGDPEVRELARELVRLAVEAAEEVQRNPSSKEVDMALLLILIAILEAVLSLLRAERSGDPEKREKARERVREAVERAEEVQRDPSGW
notes: as for B1
B21: SP2 (designed binder)
chain: SGSGSSDEEFKFLATEAKMLITAAERLAGTDPELQEMVALIKKELEQAERTFRNGDKSEAQRQLEFVLTAARAVMNVAAAANAAGTDPELIEMVLRILKQLKEAIRTFQNGDQEEAETQLRFVLRAAIAVAVVAAALVLAGTDPELQEMVKQILEELKQAIETFARGDKEKALTQLLFVAWAAHAVAMIAAAANLAGTDPRLQQQVKEILEKLKEAIETFQKGDEEQAFRQLAEVLAEAALVALRAALTN
notes: as for B5
B22: D2O (designed binder)
chain: SGSGSEEEEIRLAQLAIQIIQYQVEKNGDEQLLRLIQEITEQLQKEGDERLIRILLAMFAIILILEHVEKNGDEELLRLIQEITEKLARQGDERLIRILIAMAGIIWILELVKKNGDEQLLRLIREITRKLAEEGDERLIQILLAMHAIIISSEQLEKNGDEELLQKLRELLEKIAKE
notes: as for B1

Molecular target: the molecule itself
Assay: size-exclusion chromatography, self-association (homodimer)
Procedure: FIG. 7. Size exclusion chromatography (SEC) traces of purified SP apo-proteins. Proteins were injected as 0.5 mL aliquots onto a Superdex™ 200 Increase 10/300 GL column (Cytiva Life Sciences). The narrow, isolated peaks indicate that the samples contain monodisperse protein. Running buffer was 150 mM NaCl, 10 mM Tris at pH 8. Proteins were purified by Ni-NTA and one round of SEC prior to collecting the data shown.
Proteins were purified by Ni-NTA and size-exclusion chromatography (SEC) (FIG. 7). […] A slightly lower predicted radius of gyration (Rg) value compared to experimental SAXS data is likely due to a dense hydration shell around the highly charged SP proteins (Svergun et al. 1998; Kim et al. 2016). The far ultraviolet (UV) circular dichroism (CD) spectra of three SP proteins that expressed in high yield (≥140 mg/L) show the proteins are highly α-helical with and without the synthetic Chl a derivative, Zn pheophorbide a methyl ester (ZnPPaM). Thermal denaturation curves monitored by the CD signal at 222 nm indicate that all three proteins are highly thermostable in the apo- and holo-states (FIG. 2).

Protein	binding result
B1	binds
B2	binds
B3	binds
B4	binds
B5	binds
B6	binds
B7	binds
B8	binds
B9	binds
B10	binds
B11	binds
B12	binds
B13	binds
B14	binds
B15	binds
B16	binds
B17	binds
B18	binds
B19	binds
B20	binds
B21	binds
B22	binds
